Source: patent US20240034813A1 (Janssen / Centocor, published 2024)

Experiments:
[1] = target: T1, recombinant human EGFR/ErbB1/HER1 with C-terminal His tag, Cy5-labeled (human, UniProt P00533 25-645, Cy5 label (reacted with Cy5 Mono NHS Ester; sites not stated)); experiment: competitive TR-FRET (Eu-amivantamab/Cy5-EGFR), EC50 ratio vs Reference Material; Ex. 11 drug product, 6 months at 5 C
T1 construct: Commercial protein; also called Cy5-EGFR; Cy5-labeled EGFR antigen; not shown: C-terminal His tag
Text: (§1) In this procedure, varying concentrations of unlabeled bispecific EGFR-cMet antibody sample compete with donor fluorophore (Europium (Eu) chelate) labeled bispecific EGFR-cMet antibody for binding to an acceptor fluorophore (Cy5)-labeled EGFR antigen. Excitation of the donor fluorophore results in a transfer of energy to the bound acceptor fluorophore (FRET process). The resultant FRET is detected by emission of light at 665 nm using a microplate reader capable of measuring time-resolved fluorescence. Sample dose response curves are compared to the RM.
(§2) EGFR Binding Materials and Methods. Certified commercial EGFR, a recombinant human EGFR/ErbB1/HER1 with C-terminal His tag is reacted with certified commercial Cy5 Mono NHS Ester to produce Cy5-labeled EGFR. Validated bispecific EGFR-cMet antibody is reacted with certified commercial Europium (Eu) chelate to produce Eu-labeled bispecific EGFR-cMet antibody. […] Fluorescence is then measured by spectrophotometry at 665 nm, plotted against antibody concentration and analyzed by a four-parameter logistic model. The antibody concentration required to obtain half of the maximum fluorescence response (EC50) is determined for RM, assay control and samples. The potencies of assay control and samples are calculated based on the ratio of the sample (or control) and RM EC50 values and reported as a percentage activity relative to the RM.

[2] = target: T1, recombinant human EGFR/ErbB1/HER1 with …; experiment: competitive TR-FRET (Eu-amivantamab/Cy5-EGFR), EC50 ratio vs Reference Material; Ex. 11 drug product, 1 month at 40 C
Text: as §1, §2

[3] = target: T2, recombinant cMet/HGFR with c-terminal His-tag, Cy5-labeled (UniProt P08581 25-932, limits assumed, Cy5 label (reacted with Cy5 Mono NHS Ester; sites not stated)); experiment: competitive TR-FRET (Eu-amivantamab/Cy5-c-MET), EC50 ratio vs Reference Material; Ex. 11 drug product, 5 months at 5 C
T2 construct: Commercial protein; also called Cy5-c-MET; Cy5-labeled c-MET antigen; not shown: C-terminal His-tag
Text: as §1, with “(Cy5)-labeled c-MET” for “(Cy5)-labeled EGFR”, “the Reference Material (RM).” for “the RM.”
as §2, with “c-MET Binding” for “EGFR Binding”, “commercial cMet,” for “commercial EGFR,”, “recombinant cMet/HGFR” for “recombinant human EGFR/ErbB1/HER1”, “with c-terminal His-tag” for “with C-terminal His tag”, “Cy5-labeled c-MET.” for “Cy5-labeled EGFR.”, “produce Eu labeled” for “produce Eu-labeled”

[4] = target: T2, recombinant cMet/HGFR with c-terminal …; experiment: competitive TR-FRET (Eu-amivantamab/Cy5-c-MET), EC50 ratio vs Reference Material; Ex. 11 drug product, 12 months at 5 C
Text: as §1, with “(Cy5)-labeled c-MET” for “(Cy5)-labeled EGFR”, “the Reference Material (RM).” for “the RM.”
as §2, with “c-MET Binding” for “EGFR Binding”, “commercial cMet,” for “commercial EGFR,”, “recombinant cMet/HGFR” for “recombinant human EGFR/ErbB1/HER1”, “with c-terminal His-tag” for “with C-terminal His tag”, “Cy5-labeled c-MET.” for “Cy5-labeled EGFR.”, “produce Eu labeled” for “produce Eu-labeled”

[5] = target: T2, recombinant cMet/HGFR with c-terminal …; experiment: competitive TR-FRET (Eu-amivantamab/Cy5-c-MET), EC50 ratio vs Reference Material; Ex. 3 acetate formulation with PS80, T0
Text: as §1, with “(Cy5)-labeled c-MET” for “(Cy5)-labeled EGFR”, “the Reference Material (RM).” for “the RM.”
as §2, with “c-MET Binding” for “EGFR Binding”, “commercial cMet,” for “commercial EGFR,”, “recombinant cMet/HGFR” for “recombinant human EGFR/ErbB1/HER1”, “with c-terminal His-tag” for “with C-terminal His tag”, “Cy5-labeled c-MET.” for “Cy5-labeled EGFR.”, “produce Eu labeled” for “produce Eu-labeled”

[6] = target: T1, recombinant human EGFR/ErbB1/HER1 with …; experiment: competitive TR-FRET (Eu-amivantamab/Cy5-EGFR), EC50 ratio vs Reference Material; Ex. 12 drug product with rHuPH20, 3 months at 40 C
Text: as §1, §2

[7] = target: T1, recombinant human EGFR/ErbB1/HER1 with …; experiment: competitive TR-FRET (Eu-amivantamab/Cy5-EGFR), EC50 ratio vs Reference Material; Ex. 2 Formulation 2 (50 mM histidine), T0, 25 C table
Text: as §1, §2

[8] = target: T1, recombinant human EGFR/ErbB1/HER1 with …; experiment: competitive TR-FRET (Eu-amivantamab/Cy5-EGFR), EC50 ratio vs Reference Material; Ex. 2 Formulation 1 (10 mM histidine), 3 months at 5 C
Text: as §1, §2

[9] = target: T2, recombinant cMet/HGFR with c-terminal …; experiment: competitive TR-FRET (Eu-amivantamab/Cy5-c-MET), EC50 ratio vs Reference Material; Ex. 2 Formulation 1 (10 mM histidine), 3 months at 5 C
Text: as §1, with “(Cy5)-labeled c-MET” for “(Cy5)-labeled EGFR”, “the Reference Material (RM).” for “the RM.”
as §2, with “c-MET Binding” for “EGFR Binding”, “commercial cMet,” for “commercial EGFR,”, “recombinant cMet/HGFR” for “recombinant human EGFR/ErbB1/HER1”, “with c-terminal His-tag” for “with C-terminal His tag”, “Cy5-labeled c-MET.” for “Cy5-labeled EGFR.”, “produce Eu labeled” for “produce Eu-labeled”

B1: amivantamab (bispecific antibody, human IgG1, kappa)
heavy 1: not shown
light 1: not shown
heavy 2: not shown
light 2: DIQMTQSPSSVSASVGDRVTITCRASQGISNWLAWFQHKPGKAPKLLIYAASSLLSGVPSRFSGSGSGTDFTLTISSLQPEDFATYYCQQANSFPITFGQGTRLEIKRTVAAPSVFIFPPSDEQLKSGTASVVCLLNNFYPREAKVQWKVDNALQSGNSQESVTEQDSKDSTYSLSSTLTLSKADYEKHKVYACEVTHQGLSSPVTKSFNRGEC
notes: The samples tested were high concentration (160 mg/mL) formulations, fresh or stored or stressed; also called JNJ-61186372; bispecific EGFR-cMet antibody
- EGFR Binding activity relative to Reference Material (%) [1]: 84%
- EGFR Binding activity relative to Reference Material (%) [2]: 39%
- cMET Binding activity relative to Reference Material (%) [3]: 108%
- cMET Binding activity relative to Reference Material (%) [4]: 98%
- cMET Binding % activity relative to RM [5]: 94%
- EGFR Binding activity relative to Reference Material (%) [6]: 9%
- EGFR Binding % activity relative to RM [7]: 103%
- EGFR Binding % activity relative to RM [8]: 102%
- cMET Binding % activity relative to RM [9]: 100%
